Laboratory results: article PMC9974412

Biological target: HIV-1 Env, strain HXB2 (HIV-1) (UniProt P04578)

5-Helix (designed binder) was tested, and the IC50 of neutralisation of HXB2 Env-pseudotyped lentivirus, HOS-CD4-CCR5 cells was 8.2 nM.
